Assay results taken from patent US20230322947A1 (published 2023).

Target: T1, cynomolgous CD3 on the cynomolgous T-cell line HSC-F (cynomolgus, UniProt Q95LI8 22-171; Q95LI7 23-181)
T1 chain: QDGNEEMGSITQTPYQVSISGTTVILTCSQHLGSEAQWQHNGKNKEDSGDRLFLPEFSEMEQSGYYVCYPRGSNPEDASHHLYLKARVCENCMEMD
Assay: FACS binding

B1: bsIgG1 huCD3-H3L1×HER2-LFLEDA (bispecific antibody)
heavy 1: EVKLVESGGGLVKPGRSLRLSCAASGFTFNTYAMNWVRQAPGKGLEWVARIRSKYNNYATYYADSVKDRFTISRDDSKSILYLQMNSLKTEDTAMYYCVRHGNFGNSYVSWFAYWGQGTLVTVSS
VL 1: not shown
heavy 2: QVQLVQSGAEVKKPGASVKVSCKASGYTFTNYGISWVRQAPGQGLEWMGWLSAYSGNTIYAQKLQGRVTMTTDTSTTTAYMELRSLRSDDTAVYYCARDRIVVRPDYFDYWGQGTLVTVSS
VL 2: EIVLTQSPATLSLSPGERATLSCRASQSVSSYLAWYQQKPGQAPRLLIYDASNRATGIPARFSGSGSGTDFTLTISSLEPEDFAVYYCQQRSNWPRTFGQGTKVEIK
Work on B1 yielded an EC50 of 3.54 µg/mL.
